Source: patent publication US8247194 (Amgen, dated 2012)
One block for each binder: values may come before it.

Tests used:
[1] = molecular target: T1, recombinant human GM-CSF (rhGM-CSF), produced in E. coli (human, UniProt P04141 18-144); test: cell-based or functional assay
[2] = molecular target: T1, recombinant human GM-CSF (rhGM-CSF), …; test: cell-based or functional assay; remark: listed apart in the source
[3] = molecular target: T1, recombinant human GM-CSF (rhGM-CSF), …; test: SPR, rhGM-CSF coated chip, 1:1 Langmuir fit, analyte 3120 nM; analyte concentration 3120 nM
[4] = molecular target: T1, recombinant human GM-CSF (rhGM-CSF), …; test: SPR, rhGM-CSF coated chip, 1:1 Langmuir fit, analyte 116 nM
[5] = molecular target: T1, recombinant human GM-CSF (rhGM-CSF), …; test: SPR, rhGM-CSF coated chip, 1:1 Langmuir fit, analyte 1040 nM
[6] = molecular target: T1, recombinant human GM-CSF (rhGM-CSF), …; test: SPR, purified SCA over rhGM-CSF coated chip, 1:1 Langmuir fit
Description: FIG. 36A, B: Kinetic binding analysis of SCA leads derived from the method of the invention, as determined by SPR. Binding kinetics (kd and ka) of the SCA leads were measured injecting 10 μL of purified protein in dilution series ranging from 10 μg/mL to 1 pg/mL purified SCA onto a rhGM-CSF coated sensor chip surface. The dissociation was monitored at 25° C. for 100 sec. Data were fitted using BIAevalution™ software determining the rate constant for dissociation (FIG. 36B) and association (FIG. 36A) kinetics. The residuals corresponding to the fitted data monitoring the deviation from the raw data indicated no systematic deviation for the fit.

[7] = molecular target: T1, recombinant human GM-CSF (rhGM-CSF), …; test: SPR, rhGM-CSF coated chip, 1:1 Langmuir fit, analyte 12.8 nM
[8] = molecular target: T1, recombinant human GM-CSF (rhGM-CSF), …; test: SPR, rhGM-CSF coated chip, 1:1 Langmuir fit, analyte 347 nM
[9] = molecular target: T1, recombinant human GM-CSF (rhGM-CSF), …; test: SPR, rhGM-CSF coated chip, 1:1 Langmuir fit, analyte 38.5 nM
[10] = molecular target: T1, recombinant human GM-CSF (rhGM-CSF), …; test: SPR, rhGM-CSF coated chip, 1:1 Langmuir fit, analyte 3120 nM

T1 sequence (P04141 18-144 limits assumed): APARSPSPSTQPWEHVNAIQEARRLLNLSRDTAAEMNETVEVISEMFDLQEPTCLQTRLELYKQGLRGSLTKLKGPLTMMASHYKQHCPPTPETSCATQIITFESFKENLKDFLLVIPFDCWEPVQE

- IC50 (read off the curve), TF-1 proliferation, C33ON-33 dimer [1]: ~0.2 µg/mL
- IC50 (read off the curve), TF-1 proliferation, C33ON-33 mono [1]: ~0.2 µg/mL
B1: half-human SCA C33oN-33 (scFv)
scFv: ELQLVEQSGAALVKPGDSVKMSCKASGYPFTDYIVHWVKQSHGKSLDWIGYINPYSGDTKFNEKFKSKATLTVDKSSSTAYMEFSRLTSEDSAIYYCARSGLIAVYFDYWGQGTTVTVSSGGGGSGGGGSGGGGSELVLTQSPDFQSVTPKEKVTITCRASQSIGSSLHWYQQKPDQSPKLLIKFASQSLSGVPSRFSGSGSGTDFTLTINSLEAEDAATYYCQQSYSTPSTFGPGTKVEIKTGDYKDDDDKHHHHHH

- half maximal inhibition constant (IC50), rhGM-CSF dependent proliferation of TF-1 cells [2]: 6 nM
- Kd [3]: 94.6 nM
- Ka [4]: 1.66e+08 M⁻¹
- Kd [4]: 6.01 nM
- koff [4]: 0.00464 s⁻¹
- kon [4]: 772000 M⁻¹ s⁻¹
- Ka [5]: 1.89e+07 M⁻¹
- Kd [5]: 52.8 nM
- koff [5]: 0.0046 s⁻¹
- kon [5]: 87100 M⁻¹ s⁻¹
- Kd [6]: 50 nM
- Ka [7]: 3.25e+08 M⁻¹
- Kd [7]: 3.07 nM
- koff [7]: 0.00384 s⁻¹
- kon [7]: 1.25e+06 M⁻¹ s⁻¹
- Ka [8]: 9.22e+07 M⁻¹
- Kd [8]: 10.8 nM
- koff [8]: 0.00477 s⁻¹
- kon [8]: 440000 M⁻¹ s⁻¹
- Ka [9]: 2.2e+08 M⁻¹
- Kd [9]: 4.55 nM
- koff [9]: 0.00444 s⁻¹
- kon [9]: 975000 M⁻¹ s⁻¹
- Ka [10]: 1.06e+07 M⁻¹
- koff [10]: 0.00514 s⁻¹
- kon [10]: 54300 M⁻¹ s⁻¹
B2: half-human SCA B32oN-45 (scFv)
scFv: ELQLVEQSGAALVKPGDSVKMSCKASGYPFTDYIVHWVKQSHGKSLDWIGYINPYSGDTKFNEKFKSKATLTVDKSSSTAYMEFSRLTSEDSAIYYCARSGLIAVYFDYWGQGTTVTVSSGGGGSGGGGSGGGGSELVMTQSPSSVSASVGDRVTIACRASQNIRNILNWYQQRPGKAPQLLIYAASNLQSGVPSRFSGSGSGTDFTLTINSLQPEDFATYYCQQSYSMPRTFGGGTKVEIKTGDYKDDDDKHHHHHH
notes: Expressed from pComb3H5BFlag/His, which adds the Flag-tag between the SCA and the His6-tag; As a lead it was purified by IMAC and gel filtration; also called maternal SCA B32oN-45
